Experimental data: publication PMC11371828 (Nature Communications, 2024)
Residue numbers refer to the chain shown, from its start.

What was measured:
6xHis-IKKβ(1-669) EE = target: T1, 6xHis-IKKβ(1-669) EE (human, UniProt O14920 1-669, S177E | S181E); assay: pull-down
T1 sequence (looked up): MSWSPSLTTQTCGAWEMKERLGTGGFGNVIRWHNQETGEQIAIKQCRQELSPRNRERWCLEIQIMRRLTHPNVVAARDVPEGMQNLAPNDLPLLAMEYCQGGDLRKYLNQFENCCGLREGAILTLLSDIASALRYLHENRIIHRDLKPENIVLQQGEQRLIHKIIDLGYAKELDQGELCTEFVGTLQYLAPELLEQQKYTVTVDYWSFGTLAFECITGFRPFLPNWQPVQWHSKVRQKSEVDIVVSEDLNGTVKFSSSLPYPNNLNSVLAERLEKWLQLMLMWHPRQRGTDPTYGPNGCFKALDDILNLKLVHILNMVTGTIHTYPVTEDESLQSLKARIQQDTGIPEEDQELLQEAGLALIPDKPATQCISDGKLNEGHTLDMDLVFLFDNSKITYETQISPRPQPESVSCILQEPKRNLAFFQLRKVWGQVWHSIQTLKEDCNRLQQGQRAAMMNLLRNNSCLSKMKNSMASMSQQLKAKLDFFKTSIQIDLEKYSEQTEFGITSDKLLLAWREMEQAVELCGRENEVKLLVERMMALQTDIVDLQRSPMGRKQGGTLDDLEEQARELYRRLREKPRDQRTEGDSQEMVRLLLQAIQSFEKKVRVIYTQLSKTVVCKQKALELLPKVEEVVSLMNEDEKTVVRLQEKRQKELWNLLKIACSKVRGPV

[1] = target: T2, 6xHis-IKKβ(1-669) EE M475A (human, UniProt O14920 1-669, S177E | S181E | M475A); assay: pull-down
T2 sequence (looked up): T1 sequence (looked up) with M475A

binding result (6xHis-IKKβ(1-669) EE): binds
binding result [1]: binds
B1: MBP-IκBα pep(s) (peptide, UniProt P25963 301-317, looked up)
chain: DELPYDDCVFGGQRLTL
